One substance from patent publication US5747321 can be followed below.

For the test, the target named is fused protein β-gal97S4DhCNP-22R5-3 (human) (UniProt P23582).

In the case of “natural V8 protease (Staphylococcus aureus V8 protease) (from UniProt P0C1U8) (enzyme)”, the cleavage efficiency (proportion of fused protein cleaved) amounted to 60%.
